Molecular target: MBP-tagged ADD domain of DNMT3A (476-614) (human, UniProt Q9Y6K1 476-614)
Assay: peptide or protein array

binding result: binds
Binder: EKSPGKLLVKMPFQT [TRD 214–228 peptide (WT, 15mer, E214-T228)]
